From the supplement of paper PMC9170038

Test system: MS2 coat protein
Experiment: apparent KD of MS2 coat protein; designed switch direction (-1 OFF switch, 1 ON switch): -1; higher = weaker reporter binding
How it was run: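 Each step of the titration lasted 0.8–1.5 h at the lowest concentration and 10–20 min at the highest. The protein, SNAP-549-labelled MS2 coat protein, went from 0.7 or 1.5 nM doubling to 3 µM over RNA switches transcribed on Illumina chips by stalled E. coli RNA polymerase. Normalised cluster fluorescence was curve-fitted, and the per-design median over clusters is given as apparent KD.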

[1] = input ligand: microRNA oligo, concentration not stated
[2] = Eterna round: R95, input ligand: FMN 200 uM
[3] = Eterna round: R95, input ligand: microRNA oligo, concentration not stated
[4] = Eterna round: R95, input ligand: none

Sequence | apparent KD of MS2 coat protein (input ligand: FMN 200 uM) | apparent KD of MS2 coat protein (input ligand: none) | apparent KD of MS2 coat protein [1] | apparent KD of MS2 coat protein [2] | apparent KD of MS2 coat protein [3] | apparent KD of MS2 coat protein [4]
CUAACAUGCUGGUGAUCAUACAUGAGGAUCACCCAUGUAACAAGCUUUUUGCUCGUCUUAUAAUUUAAGAUCACCAG [Stov1/7-A4] (Eterna round: R97, puzzle: Sensor, turn-off variant 1) | 17 nM | 14.1 nM |  |  |  | 
CUAAGUUGGUAAGGAUAUCCUACAUUAUUCUGACCCGUGCAAGCUACAUGAGGAUCACCCAUGUGGGAGAAGGUGCGUUAAAGU [Design 4] (Eterna round: R96, puzzle: Exclusion NG 2) | 23.7 nM | 24 nM | 21.3 nM |  |  | 
CUAGAUCUUCGGAUCUAGGACAUGAGGAUCACCCAUGUCACGAGCAGAUCCUCAUGCAAGCUUUUUGCUCGUCUUAU [Sensor v3 - Turn-off variant 1 - 36] (puzzle: Sensor v3, turn-off variant 1) |  |  |  | 133 nM | 17.4 nM | 70.1 nM
CUAGCGAAUGUAGGAUAUCGGACUGUUUCAGUCUGAGAAGGACAUGAGGAUCACCCAUGUGUAGCUACGUGAGUAGCACGCUAG [JL ENG1 3.89] (Eterna round: R96, puzzle: Exclusion NG 1) | 58.7 nM | 27.5 nM | 16.1 nM |  |  | 
CUAGCGAUUGUAGGAUAUCGGACUGUUUCAGUCUGAGAAGGACAUGAGGAUCACCCAUGUGAACCAACGUGAGUUGGACGCUAG [JL ENG1 3.82] (Eterna round: R96, puzzle: Exclusion NG 1) | 51.1 nM | 19.4 nM | 12.5 nM |  |  | 
CUAGCGUAUGUAGGAUAUCGGACUGUUUCAGUCUGAGAAGGACAUGAGGAUCACCCAUGUAUUGCUACGUGAGUAGCUCGCUAG [JL ENG1 3.93] (Eterna round: R96, puzzle: Exclusion NG 1) | 30.1 nM | 19.6 nM | 16.8 nM |  |  | 
CUAUCGUGAGGAUAUGACCCAUAAGCACUAAAGUAGGUGAGUCAGAAGGCACAUGAGGAUCACCCAUGUGGACC [Eternabot (L1) Solution 47] (Eterna round: R97, puzzle: Exclusion 4) | 59.8 nM | 21.9 nM |  |  |  | 
CUAUGAGCUGAGGAUAUCUGCAGGUUGUGCCUGGGAGAAGGCAGCACAUGAGGAUCACCCAUGUGACCGAAAUA [Mod Ex6 A.17 by Nando] (Eterna round: R97, puzzle: Exclusion 6) | 195 nM | 50.8 nM |  |  |  | 
CUAUUCCGAGGAUAUACAUGAGGAUCACCCAUGUCGGGCCUCAGCGUUUAGCGCGUAAGUAGAAGGUGGGUUUC [JL Riri mod 7] (puzzle: Exclusion 3) |  |  |  |  | 27.4 nM | 
CUCAGACAUGAGGAUCACCCAUGUGAGGAUAUGAUGCGAUCGUCGAAAGACGAUAGCAUCAGAAGGUACAAAUG [Fiskers Ex 1 - 20] (puzzle: Exclusion 1) |  |  |  |  | 55.3 nM | 
CUCAGGUCAGGAUAUGUAGACCGGUGCAGACACUACGGGAAACAGAAGGGACAUGAGGAUCACCCAUGUUCGUA [EX4 B.11] (Eterna round: R97, puzzle: Exclusion 4) | 45 nM | 30.4 nM |  |  |  | 
CUCAUGCCUGAGGAUAUGCUGUACAAAAGUACUGCAGAAGGUAGAACAUGAGGAUCACCCAUGUGGCGAAAGCC [Omei Ex G3] (Eterna round: R97, puzzle: Exclusion 6) | 171 nM | 45.8 nM |  |  |  | 
CUCAUGUAAGGAUAUUGGCACAUGGAACCUGCUGGUUCUGAUAAGAAGGUACAUGAGGAUCACCCAUGUCCUCG [Eternabot (L2) Solution 89] (Eterna round: R97, puzzle: Exclusion 4) | 48.7 nM | 47.5 nM |  |  |  | 
CUCCAUACAGGAUAUACAGGCGGUGGAGCCGUAUGAUCAACACAUGAGGAUCACCCAUGUAGAAGGGUGUGUAC [Eternabot (L2) Solution 25] (Eterna round: R97, puzzle: Exclusion 2) | 436 nM | 642 nM |  |  |  | 
CUCCCUUCAGGAUAUACAUGAGGAUCACCCAUGUGUUCCAGCUAGGAAACUAGCAAAUGUAGAAGGGAAGGGAG [Mat - Exclusion 3 - JL Mod - D4] (Eterna round: R97, puzzle: Exclusion 3) | 183 nM | 90 nM |  |  |  | 
CUCCGACAUGAGGAUCACCCAUGUGAGGAUAUGUAGCCCAGUUGGACAACUCGAGGUAGCAGAAGGCACAUGCC [Eternabot (L2) Solution 64] (Eterna round: R97, puzzle: Exclusion 1) | 57.6 nM | 27 nM |  |  |  | 

Sequence | apparent KD of MS2 coat protein (input ligand: FMN 200 uM) | apparent KD of MS2 coat protein (input ligand: none) | apparent KD of MS2 coat protein [1] | apparent KD of MS2 coat protein [2] | apparent KD of MS2 coat protein [3] | apparent KD of MS2 coat protein [4]
CUCCGCGCUGUCAGGAUAUCCAGGGCCUACCGGCCGGAGAAGGGACAUGAGGAUCACCCAUGUUCGGGUUAGCA [Eszaquus] (puzzle: Brourd's mod of Exclusion 4) |  |  |  |  | 13.3 nM | 
CUCCGGCGUGUAGGAUAUGGAUCCGAUUAGGAUCCAGAAGGACAUGAGGAUCACCCAUGUACAUGUAAACAGUCAUCACCGGGC [salish99_ExNG1_r04_205] (Eterna round: R96, puzzle: Exclusion NG 1) | 131 nM | 21.4 nM | 18.2 nM |  |  | 
CUCCGGCGUGUAGGAUAUGGAUCCGAUUAGGAUCCAGAAGGACAUGAGGAUCACCCAUGUACAUGUCGUCGGUCGUCACCGGGC [salish99_ExNG1_r04_210] (Eterna round: R96, puzzle: Exclusion NG 1) | 52.7 nM | 32.2 nM | 22.2 nM |  |  | 
CUCCUCAUGACGCCUAAACACAUGAGGAUCACCCAUGUACAGGCUUUUUGUCGUCUUAUAAUAAAACCGAGGAGGCG [Inletice] (puzzle: Sensor v3, turn-off variant 1) |  |  |  | 14.6 nM | 65.9 nM | 15 nM
CUCCUCAUGACGCCUAAAGACAUGAGGAUCACCCAUGUACAGGCUUUUUGUCGUCUUAUAAUAAAACCGAGGAUGCG [Edmate] (puzzle: Sensor v3, turn-off variant 1) |  |  |  | 19.2 nM | 45.9 nM | 20.1 nM
CUCCUCAUGGCGCCUAAACACAUGAGGAUCACCCAUGUGCAGGCUUUUUGCCGUCUUAUAAUAAAACCGAGGAUGCG [Vegequ] (puzzle: Sensor v3, turn-off variant 1) |  |  |  | 16.9 nM | 77.8 nM | 16.2 nM
CUCGGACAUGAGGAUCACCCAUGUGAGGAUAUGGCGCUAUCGUCAUUAGACGAUUGCGCCAGAAGGCACAAAUG [LRO-Excl1-27] (puzzle: Exclusion 1) |  |  |  |  | 80.7 nM | 
CUCGGACAUGAGGAUCACCCAUGUGAGGAUAUGGUGCUAUCGUCAUUAGACGAUUGCGUUAGAAGGCACAUUUU [LRO-Excl1-29] (puzzle: Exclusion 1) |  |  |  |  | 29.5 nM | 
CUCGUGCAGCAAAGCUGUACGAGUACAUGAGGAUCACCCAUGUAGGAUAUGGUACGCAAAGCGUGCUAGAAGGACGUGUGUAUG [Mat - Exclusion NG 3 - Mod of JL - D91] (Eterna round: R96, puzzle: Exclusion NG 3) | 134 nM | 58 nM | 28.7 nM |  |  | 
CUCGUGUAAGGAUAUGCGAGCCACGGAAAUAAAACGUGGAGGUAGAAGGUACAUGAGGAUCACCCAUGUAAAAC [Anonveat] (puzzle: Exclusion 4) |  |  |  |  | 24.3 nM | 
CUCGUGUAAGGAUAUGCGAGCCGCGGAAAUACACCGCGGAGGUAGAAGGUACAUGAGGAUCACCCAUGUAAAAC [Edisora] (puzzle: Exclusion 4) |  |  |  |  | 26.6 nM | 
CUCUAACACGCAGGAUAUGCAUCACCAUAAUUAGCAGAAGGGCGAAACACAUGAGGAUCACCCAUGUUGAGGAUCACCCAUGAC [Default title] (Eterna round: R96, puzzle: Exclusion NG 1) | 22.1 nM | 23.6 nM | 19.9 nM |  |  | 
CUCUAGUCAGGAUAUUAGUUGCCGCCUGGACACAAGCGGCAUGAGAAGGGACUUGAGGAUCACCCAAGUAAAAG [Tibela] (Eterna round: R97, puzzle: Exclusion 4) | 2850 nM | 393 nM |  |  |  | 
CUCUAGUCAGGAUAUUAGUUGUCGCCCAGCAACGGGCGACAUGAGAAGGGACUUGAGGAUCACCCAAGUAAACG [Leorteti] (Eterna round: R97, puzzle: Exclusion 4) | 279 nM | 478 nM |  |  |  | 
CUCUCGGUAGGAUAUCCUCCGCCGAACAUGAGGAUCACCCAUGUCACUGCCACUACGCUAGGAGAAGGGCCAGACG [Eternabot (L2) Solution 55] (Eterna round: R97, puzzle: Exclusion 5) | 81.6 nM | 85.8 nM |  |  |  | 
